In PMC5870375:

Biological target: oligomeric amyloid-β 1–42 (UniProt P05067)
Assay: ELISA; solid phase binding assay: 96-well plate coated with 100 nM oAβ1-42 in PBS overnight at 4 °C, blocked with 4% BSA; purified Fc or sTREM2-Fc proteins in PBST with 0.5% BSA, 30 min at 37 °C; detected with biotinylated anti-Fc antibody, avidin-HRP, TMB, read at 620 nm

- Kd: 86.5 nM
Substance: soluble TREM2-Fc (human TREM2 extracellular domain, amino acids 1–171, fused to the Fc region of human IgG1) (from UniProt Q9NZC2 19-171) (Fc fusion)
